# According to article doi:10.1101/2020.11.08.373522, “The DEAD-box RNA helicase Ded1 from yeast is associated with the signal recognition particle (SRP), and its enzymatic activity is regulated by SRP21” (bioRxiv, 2020):
# T1: Recombinant His-tagged SRP21 (S. cerevisiae, UniProt P32342 1-167)
# T1 construct: SRP21 of the yeast signal recognition particle; subcloned into the NdeI and XhoI sites of pET22b; source: E. coli Rosetta (DE3), pET22b, purified (Ni-NTA)
# T1 sequence (looked up): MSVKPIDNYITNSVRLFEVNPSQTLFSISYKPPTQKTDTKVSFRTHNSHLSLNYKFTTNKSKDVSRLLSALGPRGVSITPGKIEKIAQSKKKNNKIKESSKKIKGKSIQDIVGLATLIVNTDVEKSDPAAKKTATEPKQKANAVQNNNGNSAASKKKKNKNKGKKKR
# B1: Recombinant His-tagged Sec65 (natural protein, S. cerevisiae, UniProt P29478 1-273, looked up)
# chain: MPRLEEIDDFNDIDDLDMELAELDPSLRTPIAPKITPKVVRSQDQENPAFLPGTNNNSNSNNNSSNEKEQLSFINPKTGKVERSEAISKKDLEEVKRFQVLYPCYFDINRSHKEGRRVPKELAVENPLAKTMADAVRELGILCIFEGEKCHPQDFGNPGRIRVLFKENGQLIGAATKFKGGKRQLMKAVGEYMKRHPTTIESLREIPYGPDFDNIEFKKIPRVKGFKMNEIVPLHSPFLMGHPMTKSVYETPKITAAEKSFKPPKNKYKVVRR
# notes: Sec65 of the yeast signal recognition particle; source: E. coli Rosetta (DE3), pET19b, purified (Ni-NTA)
# B2: Recombinant His-tagged SRP14 (natural protein, S. cerevisiae, UniProt P38985 1-146, looked up)
# chain: MANTGCLSPGAFLSKVPEFFQTANEKHITVRLTAKRLIEHDPVEGNLEFDSTNHPDYDVSKKASEISVSSRSDREYPLLIRMSYGSHDKKTKCSTVVKASELDQFWQEYSSVFKGGMQNLIKKKKKKSKNGTISKTGKKNKVAKKN
# notes: SRP14 of the yeast signal recognition particle; subcloned into the NdeI and XhoI sites of pET22b; source: E. coli Rosetta (DE3), pET22b, purified (Ni-NTA)
# Columns and labels:
# Conditions in all cases: both partners purified
# Recombinant Ded1-His [1] = biological target: T2, Recombinant Ded1-His (S. cerevisiae, UniProt P06634 1-604); assay: co-IP; purified Ded1 (4 µg) with one purified SRP protein (4-6 µg), no RNA, 300 µl 1X PBS with 2 mM MgCl2, 45 min at 30°C; recovered with Ded1-specific IgG cross-linked to protein A-Sepharose beads, 1 h at 18°C; 12% SDS-PAGE, Coomassie blue
# T2 construct: Ded1, DEAD-box RNA helicase of budding yeast, wild type, recombinant; also called purified Ded1
# T2 sequence (P06634 whole entry): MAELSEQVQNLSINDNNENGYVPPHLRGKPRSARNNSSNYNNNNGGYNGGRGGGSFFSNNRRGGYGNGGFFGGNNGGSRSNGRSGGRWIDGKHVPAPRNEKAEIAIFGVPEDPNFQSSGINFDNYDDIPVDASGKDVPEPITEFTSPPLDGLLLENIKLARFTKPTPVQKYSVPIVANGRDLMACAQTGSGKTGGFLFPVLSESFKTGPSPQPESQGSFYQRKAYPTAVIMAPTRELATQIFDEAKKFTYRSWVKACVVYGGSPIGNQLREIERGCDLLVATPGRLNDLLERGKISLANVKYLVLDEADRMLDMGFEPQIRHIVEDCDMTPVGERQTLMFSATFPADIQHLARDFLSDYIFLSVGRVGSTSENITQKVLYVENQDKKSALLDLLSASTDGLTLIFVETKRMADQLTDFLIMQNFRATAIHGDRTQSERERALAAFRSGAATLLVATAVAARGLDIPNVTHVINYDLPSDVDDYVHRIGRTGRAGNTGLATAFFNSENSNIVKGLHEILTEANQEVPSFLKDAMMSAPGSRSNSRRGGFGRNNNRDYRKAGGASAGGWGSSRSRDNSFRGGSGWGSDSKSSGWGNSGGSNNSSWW
# Recombinant Ded1-His [2] = biological target: T2, Recombinant Ded1-His; assay: co-IP; as a3 but purified Ded1 with combinations of purified SRP proteins (SRP21 with SRP14; SRP54 with Sec65; SRP14, SRP21, SRP54 and Sec65 together); recovered with Ded1-specific IgG on protein A-Sepharose beads; SDS-PAGE, Coomassie blue
# [3] = biological target: T1, Recombinant His-tagged SRP21; assay: as above
Binder,binding result (Recombinant Ded1-His [1]),binding result (Recombinant Ded1-His [2]),binding result [3]
B1,binds,,
B2,,binds,binds
